{"source": "patent US20100015650", "proteins": {"B1": {"name": "CTK (protein)", "chain": "MAGRGSLVSWRAFHGCDSAEELPRVSPRFLRAWHPPPVSARMPTRRWAPGTQCITKCEHTRPKPGELAFRKGDVVTILEACENKSWYRVKHHTSGQEGLLAAGALREREALSADPKLSLMPWFHGKISGQEAVQQLQPPEDGLFLVRESARHPGDYVLCVSFGRDVIHYRVLHRDGHLTIDEAVFFCNLMDMVEHYSKDKGAICTKLVRPKRKHGTKSAEEELARAGWLLNLQHLTLGAQIGEGEFGAVLQGEYLGQKVAVKNIKCDVTAQAFLDETAVMTKMQHENLVRLLGVILHQGLYIVMEHVSKGNLVNFLRTRGRALVNTAQLLQFSLHVAEGMEYLESKKLVHRDLAARNILVSEDLVAKVSDFGLAKAERKGLDSSRLPVKWTAPEALKHGKFTSKSDVWSFGVLLWEVFSYGRAPYPKMSLKEVSEAVEKGYRMEPPEGCPGPVHVLMSSCWEAEPARRPPFRKLAEKLARELRSAGAPASVSGQDADGSTSPRSQEP"}, "B2": {"name": "FAK (protein)", "chain": "LANSEKQGMRTHAVSVSETDDYAEIIDEEDTYTMPSTRDYEIQRERIELGRCIGEGQFGDVHQGIYMSPENPALAVAIKTCKNCTSDSVREKFLQEALTMRQFDHPHIVKLIGVITENPVWIIMELCTLGELRSFLQVRKYSLDLASLILYAYQLSTALAYLESKRFVHRDIAARNVLVSSNDCVKLGDFGLSRYMEDSTYYKASKGKLPIKWMAPESINFRRFTSASDVWMFGVCMWEILMHGVKPFQGVKNNDVIGRIENGERLPMPPNCPPTLYSLMTKCWAYDPSRRPRFTELKAQLSTILEEEKAQQEERMRMESRRQATVSWDSGGSDEAPPKPSRPGYPSPRSSEGFYPSPQHMVQTNHYQVSGYPGSHGITAMAGSIYPGQASLLDQTDSWNHRPQEIAMWQPNVEDSTVLDLRGIGQVLPTHLMEERLIRQQQEMEEDQRWLEKEERFLKPDVRLSRGSIDREDGSLQGPIGNQHIYQPVGKPDPAAPPKKPPRPGAPGHLGSLASLSSPADSYNEGVKLQPQEISPPPTANLDRSNDKVYENVTGLVKAVIEMSSKIQPAPPEEYVPMVKEVGLALRTLLATVDETIPLLPASTHREIEMAQKLLNSDLGELINKMKLAQQYVMTSLQQEYKKQMLTAAHALAVDAKNLLDVIDQARLKMLGQTRPH"}, "B3": {"name": "FER (protein)", "chain": "KSGVVLLNPIPKDKKWILSHEDVILGELLGKGNFGEVYKGTLKDKTSVAVKTCKEDLPQELKIKFLQEAKILKQYDHPNIVKLIGVCTQRQPVYIIMELVSGGDFLTFLRRKKDELKLKQLVKFSLDAAAGMLYLESKNCIHRDLAARNCLVGENNVLKISDFGMSRQEDGGVYSSSGLKQIPIKWTAPEALNYGRYSSESDVWSFGILLWETFSLGVCPYPGMTNQQAREQVERGYRMSAPQHCPEDISKIMMKCWDYKPENRPKFSELQKELTIIKRKLT"}, "B4": {"name": "FES (protein)", "chain": "MGFSSELCSPQGHGVLQQMQEAELRLLEGMRKWMAQRVKSDREYAGLLHHMSLQDSGGQSRAISPDSPISQSWAEITSQTEGLSRLLRQHAEDLNSGPLSKLSLLIRERQQLRKTYSEQWQQLQQELTKTHSQDIEKLKSQYRALARDSAQAKRKYQEASKDKDRDKAKDKYVRSLWKLFAHHNRYVLGVRAAQLHHQHHHQLLLPGLLRSLQDLHEEMACILKEILQEYLEISSLVQDEVVAIHREMAAAAARIQPEAEYQGFLRQYGSAPDVPPCVTFDESLLEEGEPLEPGELQLNELTVESVQHTLTSVTDELAVATEMVFRRQEMVTQLQQELRNEEENTHPRERVQLLGKRQVLQEALQGLQVALCSQAKLQAQQELLQTKLEHLGPGEPPPVLLLQDDRHSTSSSEQEREGGRTPTLEILKSHISGIFRPKFSLPPPLQLIPEVQKPLHEQLWYHGAIPRAEVAELLVHSGDFLVRESQGKQEYVLSVLWDGLPRHFIIQSLDNLYRLEGEGFPSIPLLIDHLLSTQQPLTKKSGVVLHRAVPKDKWVLNHEDLVLGEQIGRGNFGEVFSGRLRADNTLVAVKSCRETLPPDLKAKFLQEARILKQYSHPNIVRLIGVCTQKQPIYIVMELVQGGDFLTFLRTEGARLRVKTLLQMVGDAAAGMEYLESKCCIHRDLAARNCLVTEKNVLKISDFGMSREEADGVYAASGGLRQVPVKWTAPEALNYGRYSSESDVWSFGILLWETFSLGASPYPNLSNQQTREFVEKGGRLPCPELCPDAVFRLMEQCWAYEPGQRPSFSTIYQELQSIRKRHR"}, "B5": {"name": "FRK (protein)", "chain": "MSNICQRLWEYLEPYLPCLSTEADKSTVIENPGALCSPQSQRHGHYFVALFDYQARTAEDLSFRAGDKLQVLDTLHEGWWFARHLEKRRDGSSQQLQGYIPSNYVAEDRSLQAEPWFFGAIGRSDAEKQLLYSENKTGSFLIRESESQKGEFSLSVLDGAVVKHYRIKRLDEGGFFLTRRRIFSTLNEFVSHYTKTSDGLCVKLGKPCLKIQVPAPFDLSYKTVDQWEIDRNSIQLLKRLGSGQFGEVWEGLWNNTTPVAVKTLKPGSMDPNDFLREAQIMKNLRHPKLIQLYAVCTLEDPIYIITELMRHGSLQEYLQNDTGSKIHLTQQVDMAAQVASGMAYLESRNYIHRDLAARNVLVGEHNIYKVADFGLARVFKVDNEDIYESRHEIKLPVKWTAPEAIRSNKFSIKSDVWSFGILLYEIITYGKMPYSGMTGAQVIQMLAQNYRLPQPSNCPQQFYNIMLECWNAEPKERPTFETLRWKLEDYFETDSSYSDANNFIR"}, "B6": {"name": "ITK (protein)", "chain": "NNFILLEEQLIKKSQQKRRTSPSNFKVRFFVLTKASLAYFEDRHGKKRTLKGSIELSRIKCVEIVKSDISIPCHYKYPFQVVHDNYLLYVFAPDRESRQRWVLALKEETRNNNSLVPKYHPNFWMDGKWRCCSQLEKLATGCAQYDPTKNASKKPLPPTPEDNRRPLWEPEETVVIALYDYQTNDPQELALRRNEEYCLLDSSEIHWWRVQDRNGHEGYVPSSYLVEKSPNNLETYEWYNKSISRDKAEKLLLDTGKEGAFMVRDSRTAGTYTVSVFTKAVVSENNPCIKHYHIKETNDNPKRYYVAEKYVFDSIPLLINYHQHNGGGLVTRLRYPVCFGRQKAPVTAGLRYGKWVIDPSELTFVQEIGSGQFGLVHLGYWLNKDKVAIKTIREGAMSEEDFIEEAEVMMKLSHPKLVQLYGVCLEQAPICLVFEFMEHGCLSDYLRTQRGLFAAETLLGMCLDVCEGMAYLEEACVIHRDLAARNCLVGENQVIKVSDFGMTRFVLDDQYTSSTGTKFPVKWASPEVFSFSRYSSKSDVWSFGVLMWEVFSEGKIPYENRSNSEVVEDISTGFRLYKPRLASTHVYQIMNHCWKERPEDRPAFSRLLRQLAEIAESGL"}, "B7": {"name": "JAK2 (protein)", "chain": "RIGALGFSGAFEDRDPTQFEERHLKFLQQLGKGNFGSVEMCRYDPLQDNTGEVVAVKKLQHSTEEHLRDFEREIEILKSLQHDNIVKYKGVCYSAGRRNLKLIMEYLPYGSLRDYLQKHKERIDHIKLLQYTSQICKGMEYLGTKRYIHRDLATRNILVENENRVKIGDFGLTKVLPQDKEYYKVKEPGESPIFWYAPESLTESKFSVASDVWSFGVVLYELFTYIEKSKSPPAEFMRMIGNDKQGQMIVFHLIELLKNNGRLPRPDGCPDEIYMIMTECWNNNVNQRPSFRDLALRVDQIRDNMAG"}, "B8": {"name": "JAK3 (protein)", "chain": "ALAPRDGLWNGAQLYACQDPTIFEERHLKYISQLGKGNFGSVELCRYDPLGDNTGALVAVKQLQHSGPDQQRDFQREIQILKALHSDFIVKYRGVSYGPGRQSLRLVMEYLPSGCLRDFLQRHRARLDASRLLLYSSQICKGMEYLGSRRCVHRDLAARNILVESEAHVKIADFGLAKLLPLDKDYYVVREPGQSPIFWYAPESLSDNIFSRQSDVWSFGVVLYELFTYCDKSCSPSAEFLRMMGCERDVPALCRLLELLEEGQRLPAPPACPAEVHELMKLCWAPSPQDRPSFSALGPQLDMLWSGSRGCETHAFTAHPEGKHHSLSFS"}, "B9": {"name": "LYNb (protein)", "chain": "MGCIKSKGKDSLSDDGVDLKTQPVPESQLLPGQRFQTKDPEEQGDIVVALYPYDGIHPDDLSFKKGEKMKVLEEHGEWWKAKSLLTKKEGFIPSNYVAKLNTLETEEWFFKDITRKDAERQLLAPGNSAGAFLIRESETLKGSFSLSVRDFDPVHGDVIKHYKIRSLDNGGYYISPRITFPCISDMIKHYQKQADGLCRRLEKACISPKPQKPWDKDAWEIPRESIKLVKRLGAGQFGEVWMGYYNNSTKVAVKTLKPGTMSVQAFLEEANLMKTLQHDKLVRLYAVVTREEPIYIITEYMAKGSLLDFLKSDEGGKVLLPKLIDFSAQIAEGMAYIERKNYIHRDLRAANVLVSESLMCKIADFGLARVIEDNEYTAREGAKFPIKWTAPEAINFGCFTIKSDVWSFGILLYEIVTYGKIPYPGRTNADVMTALSQGYRMPRVENCPDELYDIMKMCWKEKAEERPTFDYLQSVLDDFYTATEGQYQQQP"}, "B10": {"name": "SRM (protein)", "chain": "MEPFLRRRLAFLSFFWDKIWPAGGEPDHGTPGSLDPNTDPVPTLPAEPCSPFPQLFLALYDFTARCGGELSVRRGDRLCALEEGGGYIFARRLSGQPSAGLVPITHVAKASPETLSDQPWYFSGVSRTQAQQLLLSPPNEPGAFLIRPSESSLGGYSLSVRAQAKVCHYRVSMAADGSLYLQKGRLFPGLEELLTYYKANWKLIQNPLLQPCMPQKAPRQDVWERPHSEFALGRKLGEGYFGEVWEGLWLGSLPVAIKVIKSANMKLTDLAKEIQTLKGLRHERLIRLHAVCSGGEPVYIVTELMRKGNLQAFLGTPEGRALRLPPLLGFACQVAEGMSYLEEQRVVHRDLAARNVLVDDGLACKVADFGLARLLKDDIYSPSSSSKIPVKWTAPEAANYRVFSQKSDVWSFGVLLHEVFTYGQCPYEGMTNHETLQQIMRGYRLPRPAACPAEVYVLMLECWRSSPEERPSFATLREKLHAIHRCHP"}, "B11": {"name": "TEC (protein)", "chain": "MNFNTILEEILIKRSQQKKKTSPLNYKERLFVLTKSMLTYYEGRAEKKYRKGFIDVSKIKCVEIVKNDDGVIPCQNKYPFQVVHDANTLYIFAPSPQSRDLWVKKLKEEIKNNNNIMIKYHPKFWTDGSYQCCRQTEKLAPGCEKYNLFESSIRKALPPAPETKKRRPPPPIPLEEEDNSEEIVVAMYDFQAAEGHDLRLERGQEYLILEKNDVHWWRARDKYGNEGYIPSNYVTGKKSNNLDQYEWYCRNMNRSKAEQLLRSEDKEGGFMVRDSSQPGLYTVSLYTKFGGEGSSGFRHYHIKETTTSPKKYYLAEKHAFGSIPEIIEYHKHNAAGLVTRLRYPVSVKGKNAPTTAGFSYEKWEINPSELTFMRELGSGLFGVVRLGKWRAQYKVAIKAIREGAMCEEDFIEEAKVMMKLTHPKLVQLYGVCTQQKPIYIVTEFMERGCLLNFLRQRQGHFSRDVLLSMCQDVCEGMEYLERNSFIHRDLAARNCLVSEAGVVKVSDFGMARYVLDDQYTSSSGAKFPVKWCPPEVFNYSRFSSKSDVWSFGVLMWEVFTEGRMPFEKYTNYEVVTMVTRGHRLYQPKLASNYVYEVMLRCWQEKPEGRPSFEDLLRTIDELVECEETFGR"}}, "biological_target": "T1, BRB1 tyrosine kinase substrate peptide", "T1 chain": "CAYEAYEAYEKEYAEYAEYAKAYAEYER"}
{"protein": "B1", "values": [{"measurement": "Signal to Noise Ratio with BRB1 Peptide (TR-FRET kinase assay; kinase 20 nM)", "result": 2.5}]}
{"protein": "B2", "values": [{"measurement": "Signal to Noise Ratio with BRB1 Peptide (TR-FRET kinase assay; kinase 3 nM)", "result": 1.7}]}
{"protein": "B3", "values": [{"measurement": "Signal to Noise ratio with BRB1 Peptide (TR-FRET kinase assay; kinase 0.25 nM)", "result": 31}]}
{"protein": "B4", "values": [{"measurement": "Signal to Noise Ratio with BRB1 Peptide (TR-FRET kinase assay; kinase 1 nM)", "result": 24.9}]}
{"protein": "B5", "values": [{"measurement": "Signal to Noise ratio with BRB1 Peptide (TR-FRET kinase assay; kinase 0.5 nM)", "result": 9.7}]}
{"protein": "B6", "values": [{"measurement": "Signal to Noise ratio with BRB1 Peptide (TR-FRET kinase assay; kinase 0.5 nM)", "result": 8.4}]}
{"protein": "B7", "values": [{"measurement": "Signal to Noise Ratio with BRB1 Peptide (TR-FRET kinase assay; kinase 1 nM)", "result": 35.5}]}
{"protein": "B8", "values": [{"measurement": "Signal to Noise ratio with BRB1 Peptide (TR-FRET kinase assay; kinase 0.5 nM)", "result": 16.1}]}
{"protein": "B9", "values": [{"measurement": "Signal to Noise Ratio with BRB1 Peptide (TR-FRET kinase assay; kinase 1 nM)", "result": 33.1}]}
{"protein": "B10", "values": [{"measurement": "Signal to Noise ratio with BRB1 Peptide (TR-FRET kinase assay; kinase 0.5 nM)", "result": 32.5}]}
{"protein": "B11", "values": [{"measurement": "Signal to Noise ratio with BRB1 Peptide (TR-FRET kinase assay; kinase 0.5 nM)", "result": 18.6}]}
